This is an account of results in the nanobody polyreactivity screen of Harvey et al. (2022).

The data set is described as follows: yeast display, Sf9 membrane polyspecificity reagent, FACS + sequencing; frameworks hold sequencing errors. Summed up: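 Polyreactivity labels are assigned by the sorting gate from which each nanobody was recovered. The gates were low and high (top ~1%), set on anti-HA fluorescence for expression and streptavidin fluorescence for reagent binding. Before sorting, galactose-induced (36–48 hours) yeast display cells were stained for 1 hour at 4 °C with 10% biotinylated, detergent-solubilized Sf9 membrane reagent.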
Turning to “QVQLVESGGGLVEAGGSLRLSCAASGLTFYLYDMGWYRQAPGKERELVAAISRRGTSTYYADSVKGRFTISRDNAKNSVYLQMNSLKPEDTAVYYCAADRKVGRDYWGQGTQVTVSS”, the “polyreactivity (PSR sort gate)” value was “high polyreactivity”.

As for “QVQLVESGGGLVQAGGSLRLSCAASGRIFGYNTMGWYRQAPGKERELVARISYDVDSTYYADSVKGRFTISRDNAKNTVYLQMNSLKPEDTAVYYCNARRSNLGSYIEYFGFDYWGQGTQVTVSS”, the “polyreactivity (PSR sort gate)” value is on record as “low polyreactivity”. Consider “QVQLVESGGGLVQAGGSLRLSCAASGRIFDYYAMGWYRPAPGKERELVAAITSGGTTTYYADSVKGRFTISRDNAKNTVYVQMNSLKPEDTAVYYCAKYPYHIYHTDGDYWGQGTQVTVSS”, for which the “polyreactivity (PSR sort gate)” value is on record as “low polyreactivity”. “QVKLVESGGGLVQAGGSLRLSCAASGRTFGIYAMGWYRQAPGKERELVAAITWSGDSTYYADSVKGRFTISRDNAKNTVYLQINSLKPEDTAVYYCAADYVGVTSVRYDYWGQGTQVTVSS”: the “polyreactivity (PSR sort gate)” value is reported as “low polyreactivity”.

On to “QVQLVESGGGLVQAGGSLRLSCAASGRIFGSYAMGWYRQAPGKERELVAAISGGGSTNYADSVKGRFTISRDNAKNTVYLQMNSLKPEDSAVYYCTADRGFAVIVLYGYWGQGTQVTVSS”, for which the “polyreactivity (PSR sort gate)” value is recorded as “low polyreactivity”. In the case of “QVQLVESGGGLVQAGGSLRLSCAASGSTFYRNAMGWYRQAPGKEREFVAAISFRGGGTYADSVKGRFTISRDNAKNTVYLQMNSLKPEDTAVYYCAADYSVYWLDYGYWGQGTQVTVSS” it was “low polyreactivity”; in that of “QVQLVESGGGLVQAGGSLRLSCAASGLIFAYNTMGWYRQAPGKERELVAGITSGGSTYYADSVKGRFTISRDNAKNTVYLQMNSLKPEDTAVYYCAAAYRTGSVSFGYWGQGTQVTVSS”, “high polyreactivity”. Take “QVQLVESGGGLVQAGGSLRLSCAASGGIFYFNAMGWYRQAPWKERELVAAIDQRGDTTYYADTVKGRFTISRDNAKNTVYLQMNSLKPEDTAVYYCAAEIYFLGDDYWGQGTQFTVSS”: the “polyreactivity (PSR sort gate)” value was “high polyreactivity”.

On to “QVQLVESGGGLVQAGGSLRLSCAASGRIFLRNAMGWYRQAPGKERELVAAISRRGATTYYADSVKGRFTISRDNAKNTVYLQMNSLKPEDTAVYYCAKRVWETDYDYWGQGTQVTVSS”, for which the “polyreactivity (PSR sort gate)” value is reported as “high polyreactivity”. On to “QVQLVESGGGLVQAGGSLRLSCAASGSTFSSYAMGWYRQAPGKERELVAAISRRGGRTYYADSVKGRFTISRDNAKNTVYLQMNRLKPEDTAVYYCAADWGVRDEYYYWGQGTQVTVSS”, for which the “polyreactivity (PSR sort gate)” value is reported as “high polyreactivity”. In the case of “QDQLVESGGGLVQAGGSLRLSCAASGRTFVYNAMGWYRKAPGKVRELVAAITRGGSTNYADSVKGRFTISRDNAKNTVYLQMNILKPEDTAGYYCAAGLKRYGSYPWLKSGMGYWGQGTQVTVSS” it was “high polyreactivity”; in that of “QVQLVESGGGLVQAGRSLRLSCAASGRTFRGYAMGWYRQAPGKERELVAAITWRGGSTYYADSVKGRFTISRDNGKNTVYLLMNSLKPEDCAVYYCNARQWPLAYEYWGLGTQVTVSS”, “high polyreactivity”. With “QVHLVESGGGLVQAGGSLRLSCAASGRIFVFNAMGWYRQAPGKDRELVAAISRSAFSTYYADSVKGRFTISRDNAKNTVYLHMISLIPEDTAVYYCTDERTYWFFWEMDSWGQGTQVTVSS”, the “polyreactivity (PSR sort gate)” value is listed as “low polyreactivity”. As for “QVQLVESGGGLVQAGGSLRLSCAASGRIFRYYAMGWYRQAPGKERELVASITRRGGSTYYADSVKGRFTISRDNAKNTVYLQMNSLKPEDTAVYYCVGDTYYNLGNYWGQGTQVTVSS”, the “polyreactivity (PSR sort gate)” value was “high polyreactivity”. “QVQLVESGGGLVQAGGSLRLSCAASGSILKYYAMGWYRQAPGKERELVAAISRSGGSTYYADSVKGRFTISRDNAKITVYLQMTSLKPEDTAVYYCAAYYNLPYHGSDYWGQGTQVTVSS”: the “polyreactivity (PSR sort gate)” value is recorded as “high polyreactivity”.

With “QVQLVESGGGLVQAGGSLRLSCAASGSIFYYYAMGWYRQAPGKERELVAAITVSGGSTYYADSVKGRFTISRDNAKNTVYLQMNSLKPEDTAVYYCAAVSLFRDSQFDYWGQGTQVTVSS”, the “polyreactivity (PSR sort gate)” value is reported as “low polyreactivity”.
